In US20190161551A1:

How the values were obtained:
[1] = biological target: human TrkB extracellular domain (aa Cys32-His430) expressed with the Fc portion of human IgG1 at the C-terminus (human); assay: competition ELISA, 500 pM hTrkB-hFc pre-mixed with mAb, plate-coated hBDNF
[2] = biological target: human TrkB extracellular domain (aa Cys32-His430) expressed with the Fc portion of human IgG1 at the C-terminus (human); assay: competition ELISA, 500 pM hTrkB-hFc pre-mixed with mAb, plate-coated hNT-4

human TrkB extracellular domain (aa Cys32-His430) expressed with the Fc portion of human IgG1 at the C-terminus (human), sequence (chain, as listed by the source limits assumed): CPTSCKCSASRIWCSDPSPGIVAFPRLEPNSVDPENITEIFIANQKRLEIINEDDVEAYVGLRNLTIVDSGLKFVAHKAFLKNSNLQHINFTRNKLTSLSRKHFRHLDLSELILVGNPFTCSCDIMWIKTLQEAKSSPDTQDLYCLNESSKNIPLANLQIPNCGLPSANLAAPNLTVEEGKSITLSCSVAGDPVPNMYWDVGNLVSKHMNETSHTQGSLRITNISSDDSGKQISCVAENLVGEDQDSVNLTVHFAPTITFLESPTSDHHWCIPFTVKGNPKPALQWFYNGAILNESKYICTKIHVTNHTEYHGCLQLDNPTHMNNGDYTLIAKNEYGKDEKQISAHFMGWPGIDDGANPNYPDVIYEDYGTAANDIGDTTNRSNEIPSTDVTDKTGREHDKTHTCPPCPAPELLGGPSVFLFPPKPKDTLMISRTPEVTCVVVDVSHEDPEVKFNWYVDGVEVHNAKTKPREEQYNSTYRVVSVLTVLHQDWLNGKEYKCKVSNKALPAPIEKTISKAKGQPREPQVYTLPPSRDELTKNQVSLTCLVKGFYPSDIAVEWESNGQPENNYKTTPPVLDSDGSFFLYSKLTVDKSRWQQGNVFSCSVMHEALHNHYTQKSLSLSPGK

Substance | % Blockade with 100 nM antibody [1] [%] | % Blockade with 100 nM antibody [2] [%]
hIgG4 negative isotype control (antibody) | -31 | -45
mIgG1 negative isotype control (antibody) | -19 | -14
